Assay results as given in patent EP0368684A1.

Experiments:
[1] = target: hen egg white lysozyme (hen) (UniProt P00698); assay: fluorescence quench titration, VHLYS concentration from quantitative amino acid analysis; conditions: scale: mole of lysozyme per mole of VHLYS domain
[2] = target: hen egg white lysozyme (hen) (UniProt P00698); assay: calculated from the on-rate and off-rate of the stopped-flow analysis
[3] = target: hen egg white lysozyme (hen) (UniProt P00698); assay: fluorescence quench titration with lysozyme

UniProt P00698, sequence (P00698 19-147 limits assumed): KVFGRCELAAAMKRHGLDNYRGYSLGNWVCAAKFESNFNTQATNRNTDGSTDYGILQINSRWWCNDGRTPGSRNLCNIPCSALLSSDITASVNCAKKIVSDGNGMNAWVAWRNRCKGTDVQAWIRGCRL

In the case of “VHLYS domain (heavy chain variable domain of the D1.3 anti-lysozyme antibody)”, the stoichiometry (mole of lysozyme per mole of VHLYS domain) [1] is reported as 1.2, the Kd [2] is reported as 19 nM and the Kd [3] is reported as 12 nM.
